Laboratory results reported in the DeepSol protein solubility set.

Experiment: soluble on expression in E. coli; label from the status in PepcDB or PDB records

Sequence	soluble on expression in E. coli
MKKKIESYQGAAGGWGAVKSVANAVRKQMDIRQDVIAMFDMNKPEGFDCPGCAWPDPKHSASFDICENGAKAIAWEVTDKQVNASFFAENTVQSLLTWGDHELEAAGRLTQPLKYDAVSDCYKPLSWQQAFDEIGARLQSYSDPNQVEFYTSGRTSNEAAFLYQLFAREYGSNNFPDCSNMCHEPTSVGLAASIGVGKGTVLLEDFEKCDLVICIGHNPGTNHPRMLTSLRALVKRGAKMIAINPLQERGLERFTAPQNPFEMLTNSETQLASAYYNVRIGGDMALLKGMMRLLIERDDAASAAGRPSLLDDEFIQTHTVGFDELRRDVLNSEWKDIERISGLSQTQIAELADAYAAAERTIICYGMGITQHEHGTQNVQQLVNLLLMKGNIGKPGAGICPLRGHSNVQGDRTVGITEKPSAEFLARLGERYGFTPPHAPGHAAIASMQAICTGQARALICMGGNFALAMPDREASAVPLTQLDLAVHVATKLNRSHLLTARHSYILPVLGRSEIDMQKNGAQAVTVEDSMSMIHASRGVLKPAGVMLKSECAVVAGIAQAALPQSVVAWEYLVEDYDRIRNDIEAVLPEFADYNQRIRHPGGFHLINAAAERRWMTPSGKANFITSKGLLEDPSSAFNSKLVMATVRSHDQYNTTIYGMDDRYRGVFGQRDVVFMSAKQAKICRVKNGERVNLIALTPDGKRSSRRMDRLKVVIYPMADRSLVTYFPESNHMLTLDNHDPLSGIPGYKSIPVELEPSN	not soluble
MKKLFALLFISMISGMIMAQIPEVSGTIVFKKDGQPVVGALVSVLGTDISTITDVDGRFTLKEIPEKAQRIRVKYIGMQPKDVKIRPIMNVTLDLEKKLAFFIQAGVGVSGYNLENNNEDIYGGNNHLYIQGGVGLNYNFSTYFSLQPSVNVVAKGCKNMGRRGSDGQGEITVDPVYLEIPVLIAARFIISDFGRLIFNAGPYAAIGIAGKGKYTDEWEGTSMKFDLFSGDEAVLKRFDAGVQAGFAYEIKHIGFSYTFGYGLLKPFKEWNKEWGATPHNISHNFGLKYIF	not soluble
MKKLFNQVLVAAGVLALLAGCASEEENVIMAPLPIVKSEFTPKTLWSASVGDGVGHYFSKLAPDYAYDKVFVASRDGVVKALDPQNGKVIWTTDLEIEGSARLSGGITAAFGKLFIGSENGVVNALDAETGEPLWASAIEGEVLAAPAADNNIVIVNTSRGALIALNQEDGAQKWTISTEVPNLTLRGDSRPTAVAGGVFWGTPSGRLAAAIAERGQLIWQQPVGQPKGATEIDRLVDVDASPLVIGGTLFTVGFNGQLIAIDLRSGQPIWKRNYSSATDMATDGSRLYLVTDKDHLVAVDTRSGTELWSNTQLEHRLLTAPKMIDDYLVVGDAEGYLHWIDRNSGEFIAQQLVNDSGFAVGPLALNDGYVIVTRNGQIKKLTIQQ	not soluble
MKKPELTATSVEKFLIEKFDSVSDLMQLSEGEESRAFSFDVGGRGYVLRVNSCADGFYKDRYVYRHFASAALPIPEVLDIGEFSESLTYCISRRAQGVTLQDLPETELPAVLQPVAEAMDAIAAADLSQTSGFGPFGPQGIGQYTTWRDFICAIADPHVYHWQTVMDDTVSASVAQALDELMLWAEDCPEVRHLVHADFGSNNVLTDNGRITAVIDWSEAMFGDSQYEVANIFFWRPWLACMEQQTRYFERRHPELAGSPRLRAYMLRIGLDQLYQSLVDGNFDDAAWAQGRCDAIVRSGAGTVGRTQIARRSAAVWTDGCVEVLADSGNRRPSTRPRAKE	soluble
MKKTLLAIVAVSALSACRQAEEGPPPLPRQISDRSVGHYCSMNLTEHNGPKAQIFLNGKPDQPVWFSTIKQMFGYTKLPEEPKGIRVIYVTDMGNVTDWTNPNADTEWMDAKKAFYVIDSGFIGGMGAEDALPFGNKEQAEKFAKDKGGKVVGFDDMPDTYIFK	not soluble
MKKTQRKEIENVTNITGVRQIELWRRDDLQHPRLDEVAEEVPVALVYNGISHVVMMASPKDLEYFALGFSLSEGIIESPRDIFGMDVVPSCNGLEVQIELSSRRFMGLKERRRALAGRTGCGVCGVEQLNDIGKPVQPLPFTQTFDLNKLDDALRHLNDFQPVGRLTGCTHAAAWMLPSGELVGGHEDVGRHVALDKLLGRRSQEGESWQQGAVLVSSRASYEMVQKSAMCGVEILFAVSAATTLAVEVAERCNLTLVGFCKPGRATVYTHPQRLSN	not soluble
MKKVILFMAGILASMMLNAQSRWSVTPEAGLVVNKENEGTSVTLGFKAGAGVLYQLKEGVGKKPSFGLKSGVYILMQKGGYHPMSWGNISTGGGFSMDYEKTNVESTRYYLQLPVMAHWGFKLCDDVRLKLAVGPYVAVGIGGRTNAYVSSSKYNIDEETGVGQYEYRNDYYRFGTFKGKTVNEEFGFEASPRLDWGGTASVGIAVKRISFTVGYDLAWGKYNKEQNDLRIRNHMVSFTSGYSF	not soluble
MKKWMAGLFLAAAVLLCLMVPQQIQGASSYDKVLYFPLSRYPETGSHIRDAIAEGHPDICTIDRDGADKRREESLKGIPTKPGYDRDEWPMAVCEEGGAGADVRYVTPSDNRGAGSWVGNQMSSYPDGTRVLFIVQLEHHHHHH	soluble
MKKYTLIATAPMGIEAVVAKEVRDLGYECKVDNGKVIFEGDALAICRANLWLRTADRIKVQVASFKAKTFDELFEKTKAINWRSFIPENGKFPVIGKSVKSTLASVPDCQRIVKKAIVEKLKLQSGKANDWIEETGAEYKVEISLLKDQALITLDSSGTGLHKRGYRVDQGGAPIKETLAAALVQLTNWTPDRPFVDPFCGSGTIAIEAALIGQNIAPGFNRDFVSEDWEWIGKDLWNKARLEVEEKANYDQPLTIFASDIDHRMVQIAKENAEEAGLGDLIQFKQMQVKDFTTNLEFGVIVGNPPYGERLGEKKAVEQMYKEMGQAFEPLDTWSVYMLTSNENFEEAYGRKATKKRKLFNGFIKTDYYQYWSKVRPQRKKTENA	not soluble
MKLCFNEATTLENSNLKLDLELCEKHGYDYIEIRTMDKLPEYLKDHSLDDLAEYFQTHHIKPLALNALVFFNNRDEKGHNEIITEFKGMMETCKTLGVKYVVAVPLVTEQKIVKEEIKKSSVDVLTELSDIAEPYGVKIALEFVGHPQCTVNTFEQAYEIVNTVNRDNVGLVLDSFHFHAMGSNIESLKQADGKKIFIYHIDDTEDFPIGFLTDEDRVWPGQGAIDLDAHLSALKEIGFSDVVSVELFRPEYYKLTAEEAIQTAKKTTVDVVSKYFSMLEHHHHHH	soluble
MKLIKNAEFGGERPLFESHDLRLENVIIRTGESAIKECSNIETVDCRFEGNYPFWHVHGFKIDRCYFDVGGRSALWYSDHLKMTDTIIDAPKMFREMDEIDIENVTMNDADEVFWRCNGIRIKNLKLHGGTYPFMFSNNIYVDGLESNSKYVFQYVKNVEIHHAKITTKDAFWEVENVTIYDSELNGEYLGWHSKNLRLVNCHITGEQPLCYAHDLILENCTFGPDCDRTFEYSTLQADIHGAITNIKNPMSGCIVADEFGSITIDENIKAPADCEIRLRDERTCFTD	soluble
MKLIKNGKVLQNGELQQADILIDGKVIKQIAPAIEPSNGVDIIDAKGHFVSPGFVDVHVHLREPGGEYKETIETGTKAAARGGFTTVCPMPNTRPVPDSVEHFEALQKLIDDNAQVRVLPYASITTRQLGKELVDFPALVKEGAFAFTDDGVGVQTASMMYEGMIEAAKVNKAIVAHCEDNSLIYGGAMHEGKRSKELGIPGIPNICESVQIARDVLLAEAAGCHYHVCHVSTKESVRVIRDAKRAGIHVTAEVTPHHLLLTEDDIPGNNAIYKMNPPLRSTEDREALLEGLLDGTIDCIATDHAPHARDEKAQPMEKAPFGIVGSETAFPLLYTHFVKNGDWTLQQLVDYLTIKPCETFNLEYGTLKENGYADLTIIDLDSEQEIKGEDFLSKADNTPFIGYKVYGNPILTMVEGEVKFEGDK	not soluble
MKLIRKYHMIPYENGSEYESAKRFLENILSASDVDPTTKCRFYQDVLYRIRNHPELPIVTEELFDVIQENLQQQNDNQKRNVKLERRNLKYEVIPEKRESYQEKYYESPPVYKAENEQLFDDVTYHNDGINHLKPRKNVYIKEEPEDEDYHMEYEKIPEINMEQNVNELFMEPQKHAPGKIKKSKKQKKDGTLSRPLGKKEKKSVQYATSNKRQKFDLKRGKSMNNVKPRKLYKLQLDEEDEDEEPMVDETPQNTEISIKKRPFQQDSTKNLNKRQKFDLKRRKNMSRVRPNKIYKMQNLKRNISSTIPDNGTNIPAAKRRVLHGSGSAPPPGSRVYCRLWKF	not soluble
MKLMDVHVLFSGGKDSSLSAVILKKLGYNPHLITINFGVIPSYKLAEETAKILGFKHKVITLDRKIVEKAADMIIEHKYPGPAIQYVHKTVLEILADEYSILADGTRRDDRVPKLSYSEIQSLEMRKNIQYITPLMGFGYKTLRHLASEFFILEEIKSGT	not soluble
MKLNLEREKKILLKNRNRYRYFHKPGVSIIVCTNKMKYIENIFSNYSRINYPIKEMIIILNKMNLNISKYKKVAERFSNVRIIKKPENVTLGKCLNYGVDISKYNYIFKMDDDDYYGENYICDEITSLIYTNSDIVGKASFFVYYEGYGRLEIMYPEGNEKYIPNVAGSTLLIKKSVFNKVRFRNISLAEDACFIEDCCKQGIKIYSCNRFNYVYFKHRSLNDHTWKISSEDLMKVTKKVGKYKNYLPIVTILEHHHHHH	not soluble
MKLNVDGLLVYFPYDYIYPEQFSYMRELKRTLDAKGHGVLEMPSGTGKTVSLLALIMAYQRAYPLEVTKLIYCSRTVPEIEKVIEELRKLLNFYEKQEGEKLPFLGLALSSRKNLCIHPEVTPLRFGKDVDGKCHSLTASYVRAQYQHDTSLPHCRFYEEFDAHGREVPLPAGIYNLDDLKALGRRQGWCPYFLARYSILHANVVVYSYHYLLDPKIADLVSKELARKAVVVFDEAHNIDNVCIDSMSVNLTRRTLDRCQGNLETLQKTVLRIKETDEQRLRDEYRRLVEGLREASAARETDAHLANPVLPDEVLQEAVPGSIRTAEHFLGFLRRLLEYVKWRLRVQHVVQESPPAFLSGLAQRVCIQRKPLRFCAERLRSLLHTLEITDLADFSPLTLLANFATLVSTYAKGFTIIIEPFDDRTPTIANPILHFSCMDASLAIKPVFERFQSVIITSGTLSPLDIYPKILDFHPVTMATFTMTLARVCLCPMIIGRGNDQVAISSKFETREDIAVIRNYGNLLLEMSAVVPDGIVAFFTSYQYMESTVASWYEQGILENIQRNKLLFIETQDGAETSVALEKYQEACENGRGAILLSVARGKVSEGIDFVHHYGRAVIMFGVPYVYTQSRILKARLEYLRDQFQIRENDFLTFDAMRHAAQCVGRAIRGKTDYGLMVFADKRFARGDKRGKLPRWIQEHLTDANLNLTVDEGVQVAKYFLRQMAQPFHREDQLGLSLLSLEQLESEETLKRIEQIAQQL	not soluble
MKLSQQSQAIIESAIQKAINKYTCGCEQTIVTDIHIQPNQNSGELFIYDDEDEELSSVTIDEWTAYEGDDFCEDAERIFRTVLCRMKENGSFDKLTILKPYSFVLVDEDKETISELLLVDDDTLLVNDELLKGLDKELDDFLKDLLEKLEHHHHHH	soluble
MKLSQVVVSAVAFTGLVSAANSSNSSSSKNAAQPIAGLNNGKVAGAAGVALAGALAFLI	soluble
MKLSVLDQSPIAYGSNAKEALRQTTELAKVTEALGYHRFWVSEHHDASTLAGSSPEVLIAHLAAHTKKIRLGSGGVMLPHYSAYKVAENFKLLEALHPGRIDVGLGRAPGGMPIAKMALQEGKEQNIHKYPLQVKDVIGYLQDDLPTDHRFHGLKATPLIDTVPDVWLLGSSGGSANVAAENGTGFAFAHFINGEGGVQAVESYRETFQPSALFDRPQTSVAIFVICADTDEQADQIASSLDLSLIMLENGQLSKGTPSIESALSYPYSPFERARIRENRKRMIVGSPKAVRQQLVELARAYETEEVIVVTITHRFEDRIRSYELLGEEWNVN	not soluble
MKLTIIRLQHFSDQDRIDLGKIWPSQDLSTLTLDENHRLYAAHFNERLLGAVRVTLRGVEGELSDLCVREVTRRRGVGQYLVEETLRDNPAINSWRVADHGVEDRGVMAAFMQALGFSAQQ	not soluble
